In series [1] the target is Fno (F420H2:NADP+ oxidoreductase) (Archaeoglobus fulgidus, UniProt O29370, I135A). Briefly: tryptophan fluorescence titration, fit with Hill coefficient. The class given is binding. The source says:
(§1) tryptophan fluorescence titration, fit with Hill coefficient on Fno (F420H2:NADP+ oxidoreductase)

Series [2] addresses Fno (F420H2:NADP+ oxidoreductase) (Archaeoglobus fulgidus, UniProt O29370, I135G). Described as above. Format: binding.
Source text: as §1

Series [3] has as its target Fno (F420H2:NADP+ oxidoreductase) (Archaeoglobus fulgidus, UniProt O29370, I135V). The description is as above. Format: binding.
Source text: as §1

Substrate in series [4]: O=c1nc2n(C[C@H](O)[C@H](O)[C@H](O)CO)c3cc(O)ccc3cc-2c(=O)[nH]1
Put plainly: purified protein. The class given is biochemical, Archaeoglobus fulgidus. As to conditions: 600 µM NADPH, 50 mM MES/NaOH pH 6.5, 22 °C.

Substrate in series [5]: NC(=O)C1=CN([C@@H]2O[C@H](COP(=O)(O)OP(=O)(O)OC[C@H]3O[C@@H](n4cnc5c(N)ncnc54)[C@H](OP(=O)(O)O)[C@@H]3O)[C@@H](O)[C@H]2O)C=CC1
Briefly: purified protein. As to conditions: 25 µM FO, 50 mM MES/NaOH pH 6.5, 22 °C, phase 1 of biphasic fit, negative cooperativity. The class given is biochemical, Archaeoglobus fulgidus.

Read-outs that look alike come from different tables or passages of the source.

On to `NC(=O)C1=CN([C@@H]2O[C@H](COP(=O)(O)OP(=O)(O)OC[C@H]3O[C@@H](n4cnc5c(N)ncnc54)[C@H](OP(=O)(O)O)[C@@H]3O)[C@@H](O)[C@H]2O)C=CC1` [NADPH], for which the figures for the Kd in series [1] (read-out: Kd^NADPH), in series [2] (read-out: Kd^NADPH) and in series [3] (read-out: Kd^NADPH) were 6.7 ± 0.7 nM, 1.5 ± 0.1 nM and 7.4 ± 1.1 nM, respectively.

On to `O=c1nc2n(C[C@H](O)[C@H](O)[C@H](O)CO)c3cc(O)ccc3cc-2c(=O)[nH]1` [FO], for which the Kd in series [1] (read-out: Kd^FO) came out at 5.6 ± 0.2 nM; in series [2] (read-out: Kd^FO), 6.9 ± 0.3 nM; in series [3] (read-out: Kd^FO), 7.5 ± 0.9 nM.

B1: Fno (F420H2:NADP+ oxidoreductase) (Archaeoglobus fulgidus DSM 4304; I135V) (protein)
chain: MRVALLGGTGNLGKGLALRLATLGHEIVVGSRREEKAEAKAAEYRRIAGDASITGMKNEDAAEACDIAVLTIPWEHAIDTARDLKNILREKIVVSPLVPVSRGAKGFTYSSERSAAEIVAEVLESEKVVSALHTVPAARFANLDEKFDWDVPVCGDDDESKKVVMSLISEIDGLRPLDAGPLSNSRLVESLTPLILNIMRFNGMGELGIKFL
In the case of B1, in series [4], the Michaelis constant (Km) stood at 3.7 ± 0.4 µM, the turnover number (kcat) is 1.8 ± 0.1 s⁻¹ and the kcat/Km came out at 490000 ± 55000 M⁻¹ s⁻¹. Besides, in series [5], the Km is 0.7 ± 0.1 µM, the turnover number (kcat) stood at 1.5 ± 0.09 s⁻¹ and the kcat/Km came to 2.1e+06 ± 340000 M⁻¹ s⁻¹.

B2: Fno (F420H2:NADP+ oxidoreductase) (Archaeoglobus fulgidus DSM 4304; I135A) (protein)
chain: MRVALLGGTGNLGKGLALRLATLGHEIVVGSRREEKAEAKAAEYRRIAGDASITGMKNEDAAEACDIAVLTIPWEHAIDTARDLKNILREKIVVSPLVPVSRGAKGFTYSSERSAAEIVAEVLESEKVVSALHTAPAARFANLDEKFDWDVPVCGDDDESKKVVMSLISEIDGLRPLDAGPLSNSRLVESLTPLILNIMRFNGMGELGIKFL
As for B2, in series [4], the Michaelis constant (Km) stood at 3.6 ± 0.5 µM, the kcat amounted to 1.6 ± 0.1 s⁻¹ and the kcat/Km is 450000 ± 66000 M⁻¹ s⁻¹.

B3: Fno (F420H2:NADP+ oxidoreductase) (Archaeoglobus fulgidus DSM 4304; I135G) (protein)
chain: MRVALLGGTGNLGKGLALRLATLGHEIVVGSRREEKAEAKAAEYRRIAGDASITGMKNEDAAEACDIAVLTIPWEHAIDTARDLKNILREKIVVSPLVPVSRGAKGFTYSSERSAAEIVAEVLESEKVVSALHTGPAARFANLDEKFDWDVPVCGDDDESKKVVMSLISEIDGLRPLDAGPLSNSRLVESLTPLILNIMRFNGMGELGIKFL
As to B3, in series [4], the Michaelis-Menten constant (Km) is 3.6 ± 0.4 µM, the kcat amounted to 0.7 s⁻¹ and the kcat/Km was determined as 200000 M⁻¹ s⁻¹.

Source of the values: article PMC5614548, “Effects of isoleucine 135 side chain length on the cofactor donor-acceptor distance within F420H2:NADP^+ oxidoreductase: A kinetic analysis^” (Biochemistry and Biophysics Reports, 2016).
